Patent US20180215801A1

Target: Activin B (UniProt P09529)
Test: SPR (Biacore 2000), Fc fusion captured on anti-human Fc chip, ligand injected, 1:1 Langmuir fit

Activin B, sequence (P09529 293-407 limits assumed): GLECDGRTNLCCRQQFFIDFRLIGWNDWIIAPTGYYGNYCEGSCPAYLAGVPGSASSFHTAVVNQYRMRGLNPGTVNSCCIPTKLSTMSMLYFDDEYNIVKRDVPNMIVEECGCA

BMPRII-Fc (BMPRII (1-120) fused to hIgG1-Fc) (from UniProt Q13873 27-120) (Fc fusion)
Kd: 0.8 nM | koff: 0.00042 s⁻¹ | kon: 510000 M⁻¹ s⁻¹
